Measurements from publication PMC9040739, “Entamoeba histolytica EHD1 Is Involved in Mitosome-Endosome Contact” (mBio, 2022).

Substrate: Nc1ncnc2c1ncn2[C@@H]1O[C@H](COP(=O)(O)OP(=O)(O)OP(=O)(O)O)[C@@H](O)[C@H]1O
Assay: coupled fluorescent ADP assay (ADP-hexokinase/G6PDH/diaphorase/resazurin)
Type: biochemical, Entamoeba histolytica
Settings: MgCl2, pH 7.5, 37°C, 12.5-2,500 μM ATP

B1: His-EHD1 (Entamoeba histolytica HM-1:IMSS) (protein)
chain: MFGKKKQKPQMDTSYVSVIDGVKKIYDEKIKKLEADYKYDYLVSPLMRQADFEAKPMVLFLGQYSTGKTTFINYLLNYDYPGSHIGPEPTTDGFMAIMHGPNSTNIPGNTLCVQSDKPFTSLSKFGNEFMAKFNGSFCNLPLLEHLTFIDSPGVLSGEKQRIGRSYDFNEVVRWFAERADMIVLVFDAHKLDISDEFKGVIEAVKKHSEKMRLVLNKADSIDSQQLMRVYGALMWSLGKVMQTPECLRVYVSSFWDQPFKESLFTGLFEKERDDLMYDLHALPKQATVRKVNELCKRARLAKANAYITSYLREQMPTFGKDKKKAELLKDLNTVFNTVMKRYNLAAGDFPPIDVYKDRLQNCDFSKFPKLDMRVINAVDDALGTQIPLLLKKFPMEDDLSTHTNPFEVASNFEKCCITLDVSEDEMNSYQKEFDKLPKNEVGKVLGKDCFAPLMASGADKKDLQKIWSIADSGKEGALNAHQYILAKALVRTLLQSGGYPDNLPPVE
notes: full length (ORF primers start to stop), N-terminal His tag (pColdI), tag kept; E. coli BL21, Ni-NTA; native mass 58 kDa
Km: 94.91 ± 16.63 µM
